Experimental data published in EP4793287A1, “TUMOR MICROENVIRONMENT SPECIFICALLY ACTIVATED CD47 ANTIBODY” (Affinity (Shanghai) Biopharmaceutical Co., Ltd., priority 2023, dated 2025).

Biological target: antibody antigen (CD47) coated in the ELISA of Example 3 (UniProt Q08722)
Assay: ELISA on coated antigen, ratio against wild-type 70H1

antibody antigen (CD47) coated in the ELISA of Example 3, sequence (Q08722 19-139 limits assumed): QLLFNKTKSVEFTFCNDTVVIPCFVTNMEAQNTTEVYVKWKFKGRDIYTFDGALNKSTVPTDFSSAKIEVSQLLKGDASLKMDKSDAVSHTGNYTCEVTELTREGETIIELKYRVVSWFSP

Mutant Binding Strength (EC50 post-mutation / EC50 wild-type) | Binder
1 | 70H1 mutant VH-33 Y to C (antibody, V domains shown) VH: QQQLEESGGGLVKPEGSLTLTCTASGFSFSSGCDMCWVRQAPGRGLEWIACIYTRSSGGTYYASWAKGRFTISKTSSTVDLRMTSLTAADTATYFCAGGRSSYRLNLWGQGALVTVSS VL: DVVMTQTPSPVEAAVGGTVTIKCQASQSISNELSWYQQKPGQPPKLLIYRASTLESGVSSRFKGSGSGTEFTLTISDLECADAATYYCQSTFYGDYGNAFGGGTEVVVK
1 | 70H1 mutant VL-93 Y to C (antibody, V domains shown) VH: QQQLEESGGGLVKPEGSLTLTCTASGFSFSSGYDMCWVRQAPGRGLEWIACIYTRSSGGTYYASWAKGRFTISKTSSTVDLRMTSLTAADTATYFCAGGRSSYRLNLWGQGALVTVSS VL: DVVMTQTPSPVEAAVGGTVTIKCQASQSISNELSWYQQKPGQPPKLLIYRASTLESGVSSRFKGSGSGTEFTLTISDLECADAATYYCQSTFCGDYGNAFGGGTEVVVK
1 | 70H1 mutant VL-96 Y to C (antibody, V domains shown) VH: QQQLEESGGGLVKPEGSLTLTCTASGFSFSSGYDMCWVRQAPGRGLEWIACIYTRSSGGTYYASWAKGRFTISKTSSTVDLRMTSLTAADTATYFCAGGRSSYRLNLWGQGALVTVSS VL: DVVMTQTPSPVEAAVGGTVTIKCQASQSISNELSWYQQKPGQPPKLLIYRASTLESGVSSRFKGSGSGTEFTLTISDLECADAATYYCQSTFYGDCGNAFGGGTEVVVK
0.9 | 70H1 mutant VL-49 Y to C (antibody, V domains shown) VH: QQQLEESGGGLVKPEGSLTLTCTASGFSFSSGYDMCWVRQAPGRGLEWIACIYTRSSGGTYYASWAKGRFTISKTSSTVDLRMTSLTAADTATYFCAGGRSSYRLNLWGQGALVTVSS VL: DVVMTQTPSPVEAAVGGTVTIKCQASQSISNELSWYQQKPGQPPKLLICRASTLESGVSSRFKGSGSGTEFTLTISDLECADAATYYCQSTFYGDYGNAFGGGTEVVVK
1 | 70H1 mutant VL-27 Q to C (antibody, V domains shown) VH: QQQLEESGGGLVKPEGSLTLTCTASGFSFSSGYDMCWVRQAPGRGLEWIACIYTRSSGGTYYASWAKGRFTISKTSSTVDLRMTSLTAADTATYFCAGGRSSYRLNLWGQGALVTVSS VL: DVVMTQTPSPVEAAVGGTVTIKCQASCSISNELSWYQQKPGQPPKLLIYRASTLESGVSSRFKGSGSGTEFTLTISDLECADAATYYCQSTFYGDYGNAFGGGTEVVVK
1 | 70H1 mutant VL-98 N to C (antibody, V domains shown) VH: QQQLEESGGGLVKPEGSLTLTCTASGFSFSSGYDMCWVRQAPGRGLEWIACIYTRSSGGTYYASWAKGRFTISKTSSTVDLRMTSLTAADTATYFCAGGRSSYRLNLWGQGALVTVSS VL: DVVMTQTPSPVEAAVGGTVTIKCQASQSISNELSWYQQKPGQPPKLLIYRASTLESGVSSRFKGSGSGTEFTLTISDLECADAATYYCQSTFYGDYGCAFGGGTEVVVK
1.3 | 70H1 mutant VL-92 F to C (antibody, V domains shown) VH: QQQLEESGGGLVKPEGSLTLTCTASGFSFSSGYDMCWVRQAPGRGLEWIACIYTRSSGGTYYASWAKGRFTISKTSSTVDLRMTSLTAADTATYFCAGGRSSYRLNLWGQGALVTVSS VL: DVVMTQTPSPVEAAVGGTVTIKCQASQSISNELSWYQQKPGQPPKLLIYRASTLESGVSSRFKGSGSGTEFTLTISDLECADAATYYCQSTCYGDYGNAFGGGTEVVVK
0.8 | 70H1 mutant VH-65 W to C (antibody, V domains shown) VH: QQQLEESGGGLVKPEGSLTLTCTASGFSFSSGYDMCWVRQAPGRGLEWIACIYTRSSGGTYYASCAKGRFTISKTSSTVDLRMTSLTAADTATYFCAGGRSSYRLNLWGQGALVTVSS VL: DVVMTQTPSPVEAAVGGTVTIKCQASQSISNELSWYQQKPGQPPKLLIYRASTLESGVSSRFKGSGSGTEFTLTISDLECADAATYYCQSTFYGDYGNAFGGGTEVVVK
1 | 70H1 mutant VL-53 T to C (antibody, V domains shown) VH: QQQLEESGGGLVKPEGSLTLTCTASGFSFSSGYDMCWVRQAPGRGLEWIACIYTRSSGGTYYASWAKGRFTISKTSSTVDLRMTSLTAADTATYFCAGGRSSYRLNLWGQGALVTVSS VL: DVVMTQTPSPVEAAVGGTVTIKCQASQSISNELSWYQQKPGQPPKLLIYRASCLESGVSSRFKGSGSGTEFTLTISDLECADAATYYCQSTFYGDYGNAFGGGTEVVVK
1 | 70H1 mutant VH-55 R to C (antibody, V domains shown) VH: QQQLEESGGGLVKPEGSLTLTCTASGFSFSSGYDMCWVRQAPGRGLEWIACIYTCSSGGTYYASWAKGRFTISKTSSTVDLRMTSLTAADTATYFCAGGRSSYRLNLWGQGALVTVSS VL: DVVMTQTPSPVEAAVGGTVTIKCQASQSISNELSWYQQKPGQPPKLLIYRASTLESGVSSRFKGSGSGTEFTLTISDLECADAATYYCQSTFYGDYGNAFGGGTEVVVK

Biological target: T1, CD47 on CHOK1-CD47 cells (UniProt Q08722 19-323)
T1 construct: whole, on cells; The rabbits were immunized with human CD47, so human is likely
T1 sequence (Q08722 19-323 limits assumed): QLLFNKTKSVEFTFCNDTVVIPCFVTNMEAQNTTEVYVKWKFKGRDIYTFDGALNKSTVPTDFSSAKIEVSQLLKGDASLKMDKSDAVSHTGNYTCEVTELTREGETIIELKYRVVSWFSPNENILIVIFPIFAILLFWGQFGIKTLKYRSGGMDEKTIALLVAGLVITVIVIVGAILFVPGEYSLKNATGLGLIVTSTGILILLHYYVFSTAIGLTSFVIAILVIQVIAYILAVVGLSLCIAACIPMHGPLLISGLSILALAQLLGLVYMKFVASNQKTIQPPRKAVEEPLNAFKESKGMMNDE
Assay: flow cytometry on CHOK1-CD47 cells

EC50 | Binder
3.8 nM | 71D6 (antibody, V domains shown, Recombinant rabbit monoclonal antibody expressed in Expi293; it was detected with anti-human IgG Fc) VH: QSLEESGGDLVKPGASLTLTCTASGFSFSTSYWIYWVRQAPGKGLELIACIATGSDGSTYYASWASGRFTISKTSSTTVTLQMTSLTAADTATYFCAREAGNGVYNLWGQGTLVTVSS VL: AYDMTQTPASVEVAVGGTVTIKCQASESIRNALAWYQQKPGQPPKLLISGASKLASGVASRFKGSGSATEFTLTISDLECADAATYYCQQYYSSSNVDNGFGGGTEVVVK
2.88 nM | 70G1 (antibody, V domains shown, Recombinant rabbit monoclonal antibody expressed in Expi293; it was detected with anti-human IgG Fc) VH: QSVKESEGGLFKPTDTLTLTCTVSGFSLSNYAINWVRQAPGNGLEWIGIINGYGMTYYASWAKSRSTITRNTSENTVTLKLTSLTAADTATYFCARDRYGSYVGYSSDIWGPGTLVTVSS VL: AYDMTQTPASVEAAVGGTVTIKCQASQNISSRLAWYQQKPGQPPKLLIYGTSTLASGVPSRFRGSGSGTQFSLTISDLECADAATYYCQHGYYYSSSFTTYNAFGGGTEVVVK
0.8 nM | 69F12 (antibody, V domains shown, Recombinant rabbit monoclonal antibody expressed in Expi293; it was detected with anti-human IgG Fc) VH: QSVEESEGGLFKPTDTLTLTCTISGFSLSNYDMIWVRQAPGNGLEYIGIISSRDKAGHAAWAKRRSTITRNPKENTVTLKMTSLTVADTATYFCARRFSSMHGLDIWGPGTLVTVSS VL: AYDMTQTPSSVSAAVGGTVTIKCQASQSISNYLSWYQQKPGQPPKLLIYLASTLASGVPSRFKGSGSGTQFTLTISGVQCADAATYYCQQGYSSDSVDNVFGGGTEVVVK

Biological target: T1, CD47 on CHOK1-CD47 cells
Assay: flow cytometry on CHOK1-CD47 cells
Remark: another data set of the same source

EC50 | Binder
1.17 nM | 70H1-VH2VL2 (antibody, V domains shown, Humanized 70H1) VH: QQQLVESGGGVVQPGGSLRLSCAASGFTFSSGYDMCWVRQAPGKGLEWIACIYTRSSGGTYYASWAKGRFTISKDNSKNTLYLQMNSLRAEDTAVYYCAKGRSSYRLNLWGQGTLVTVSS VL: DIQMTQSPSTLSASVGDRVTIKCQASQSISNELSWYQQKPGKAPKLLIYRASTLESGVSSRFSGSGSGTEFTLTISSLQPDDFATYYCQSTFYGDYGNAFGGGTKVEIK
1.09 nM | 70H1-VH2VL1 (antibody, V domains shown, Humanized 70H1) VH: QQQLVESGGGVVQPGGSLRLSCAASGFTFSSGYDMCWVRQAPGKGLEWIACIYTRSSGGTYYASWAKGRFTISKDNSKNTLYLQMNSLRAEDTAVYYCAKGRSSYRLNLWGQGTLVTVSS VL: DIQMTQSPSTLSASVGDRVTITCQASQSISNELSWYQQKPGKAPKLLIYRASTLESGVPSRFSGSGSGTEFTLTISSLQPDDFATYYCQSTFYGDYGNAFGGGTKVEIK
1.01 nM | 70H1-VH3VL3 (antibody, V domains shown, Humanized 70H1) VH: QQQLVESGGGVVQPGGSLRLSCAASGFSFSSGYDMCWVRQAPGKGLEWIACIYTRSSGGTYYASWAKGRFTISKDNSKNTLYLQMNSLRAEDTAVYFCAKGRSSYRLNLWGQGTLVTVSS VL: DIQMTQSPSTLSASVGDRVTIKCQASQSISNELSWYQQKPGKPPKLLIYRASTLESGVSSRFSGSGSGTEFTLTISSLQPDDFATYYCQSTFYGDYGNAFGGGTKVEIK
1.76 nM | 70H1-VH1VL3 (antibody, V domains shown, Humanized 70H1) VH: QVQLVESGGGVVQPGGSLRLSCAASGFTFSSGYDMCWVRQAPGKGLEWVSCIYTRSSGGTYYASWAKGRFTISRDNSKNTLYLQMNSLRAEDTAVYYCAKGRSSYRLNLWGQGTLVTVSS VL: DIQMTQSPSTLSASVGDRVTIKCQASQSISNELSWYQQKPGKPPKLLIYRASTLESGVSSRFSGSGSGTEFTLTISSLQPDDFATYYCQSTFYGDYGNAFGGGTKVEIK
1.04 nM | 70H1-VH1VL1 (antibody, V domains shown, Humanized 70H1) VH: QVQLVESGGGVVQPGGSLRLSCAASGFTFSSGYDMCWVRQAPGKGLEWVSCIYTRSSGGTYYASWAKGRFTISRDNSKNTLYLQMNSLRAEDTAVYYCAKGRSSYRLNLWGQGTLVTVSS VL: DIQMTQSPSTLSASVGDRVTITCQASQSISNELSWYQQKPGKAPKLLIYRASTLESGVPSRFSGSGSGTEFTLTISSLQPDDFATYYCQSTFYGDYGNAFGGGTKVEIK
0.23 nM | 70H1-VH3VL1 (antibody, V domains shown, Humanized 70H1, the final preferred antibody) VH: QQQLVESGGGVVQPGGSLRLSCAASGFSFSSGYDMCWVRQAPGKGLEWIACIYTRSSGGTYYASWAKGRFTISKDNSKNTLYLQMNSLRAEDTAVYFCAKGRSSYRLNLWGQGTLVTVSS VL: DIQMTQSPSTLSASVGDRVTITCQASQSISNELSWYQQKPGKAPKLLIYRASTLESGVPSRFSGSGSGTEFTLTISSLQPDDFATYYCQSTFYGDYGNAFGGGTKVEIK
1.05 nM | 70H1-VH2VL3 (antibody, V domains shown, Humanized 70H1) VH: QQQLVESGGGVVQPGGSLRLSCAASGFTFSSGYDMCWVRQAPGKGLEWIACIYTRSSGGTYYASWAKGRFTISKDNSKNTLYLQMNSLRAEDTAVYYCAKGRSSYRLNLWGQGTLVTVSS VL: DIQMTQSPSTLSASVGDRVTIKCQASQSISNELSWYQQKPGKPPKLLIYRASTLESGVSSRFSGSGSGTEFTLTISSLQPDDFATYYCQSTFYGDYGNAFGGGTKVEIK
0.64 nM | 70H1-VH3VL2 (antibody, V domains shown, Humanized 70H1) VH: QQQLVESGGGVVQPGGSLRLSCAASGFSFSSGYDMCWVRQAPGKGLEWIACIYTRSSGGTYYASWAKGRFTISKDNSKNTLYLQMNSLRAEDTAVYFCAKGRSSYRLNLWGQGTLVTVSS VL: DIQMTQSPSTLSASVGDRVTIKCQASQSISNELSWYQQKPGKAPKLLIYRASTLESGVSSRFSGSGSGTEFTLTISSLQPDDFATYYCQSTFYGDYGNAFGGGTKVEIK
